In series [1] the test system is fibrin. The conditions noted are these: versus t-PA control.
For series [2] the following is noted: removal of sialic acid or chemical modification of carbohydrate; cited from earlier work.

B1: glutamine117 glutamic acid275 t-PA: t-PA Carbohydrate Variant Gln117 Glu275 Equivalent (protein, UniProt P00750 36-562, looked up, variant N117Q R275E)
Tissue-type plasminogen …: SYQVICRDEKTQMIYQQHQSWLRPVLRSNRVEYCWCNSGRAQCHSVPVKSCSEPRCFNGGTCQQALYFSDFVCQCPEGFAGKCCEIDTRATCYEDQGISYRGTWSTAESGAECTNWQSSALAQKPYSGRRPDAIRLGLGNHNYCRNPDRDSKPWCYVFKAGKYSSEFCSTPACSEGNSDCYFGNGSAYRGTHSLTESGASCLPWNSMILIGKVYTAQNPSAQALGLGKHNYCRNPDGDAKPWCHVLKNRRLTWEYCDVPSCSTCGLRQYSQPQFEIKGGLFADIASHPWQAAIFAKHRRSPGERFLCGGILISSCWILSAAHCFQERFPPHHLTVILGRTYRVVPGEEEQKFEVEKYIVHKEFDDDTYDNDIALLQLKSDSSRCAQESSVVRTVCLPPADLQLPDWTECELSGYGKHEALSPFYSERLKEAHVRLYPSSRCTSQHLLNRTVTDNMLCAGDTRSGGPQANLHDACQGDSGGPLVCLNDGRMTLVGIISWGLGCGQKDVPGVYTKVTNYLDWIRDNMRP
Consider B1, for which the “fibrin stimulation and specific activity” value in series [1] is “superior to t-PA control in fibrin stimulation and specific activity”.

B2: ceruloplasmin: ceruloplasmin after removal of sialic acid (protein, UniProt P00450 20-1065, looked up)
Ceruloplasmin: KEKHYYIGIIETTWDYASDHGEKKLISVDTEHSNIYLQNGPDRIGRLYKKALYLQYTDETFRTTIEKPVWLGFLGPIIKAETGDKVYVHLKNLASRPYTFHSHGITYYKEHEGAIYPDNTTDFQRADDKVYPGEQYTYMLLATEEQSPGEGDGNCVTRIYHSHIDAPKDIASGLIGPLIICKKDSLDKEKEKHIDREFVVMFSVVDENFSWYLEDNIKTYCSEPEKVDKDNEDFQESNRMYSVNGYTFGSLPGLSMCAEDRVKWYLFGMGNEVDVHAAFFHGQALTNKNYRIDTINLFPATLFDAYMVAQNPGEWMLSCQNLNHLKAGLQAFFQVQECNKSSSKDNIRGKHVRHYYIAAEEIIWNYAPSGIDIFTKENLTAPGSDSAVFFEQGTTRIGGSYKKLVYREYTDASFTNRKERGPEEEHLGILGPVIWAEVGDTIRVTFHNKGAYPLSIEPIGVRFNKNNEGTYYSPNYNPQSRSVPPSASHVAPTETFTYEWTVPKEVGPTNADPVCLAKMYYSAVEPTKDIFTGLIGPMKICKKGSLHANGRQKDVDKEFYLFPTVFDENESLLLEDNIRMFTTAPDQVDKEDEDFQESNKMHSMNGFMYGNQPGLTMCKGDSVVWYLFSAGNEADVHGIYFSGNTYLWRGERRDTANLFPQTSLTLHMWPDTEGTFNVECLTTDHYTGGMKQKYTVNQCRRQSEDSTFYLGERTYYIAAVEVEWDYSPQREWEKELHHLQEQNVSNAFLDKGEFYIGSKYKKVVYRQYTDSTFRVPVERKAEEEHLGILGPQLHADVGDKVKIIFKNMATRPYSIHAHGVQTESSTVTPTLPGETLTYVWKIPERSGAGTEDSACIPWAYYSTVDQVKDLYSGLIGPLIVCRRPYLKVFNPRRKLEFALLFLVFDENESWYLDDNIKTYSDHPEKVNKDDEEFIESNKMHAINGRMFGNLQGLTMHVGDEVNWYLMGMGNEIDLHTVHFHGHSFQYKHRGVYSSDVFDIFPGTYQTLEMFPRTPGIWLLHCHVTDHIHAGMETTYTVLQNEDTKSG
modifications: desialylated
notes: ceruloplasmin after removal of sialic acid
Turning to B2, in series [2], the half-life change result was “decreases its half-life dramatically”.

These data come from patent US5714144A, “Human tissue-type plasminogen activator variant” (Genentech, Inc., priority 1995, dated 1998).
